Assay results published in paper PMC10532227.

What was measured:
[1] = biological target: fluorescently labeled mononucleosomes assembled from octamers of recombinant human histones and DNA containing the 147 bp nucleosome positioning sequence 603 (human); experiment: spFRET microscopy; as a2 but nucleosomes N(13, 91) (1 nM) preincubated 15 min with EGCG (0.8 µM) before PARP1 (20 nM), or PARP1 preincubated with EGCG; TB150 buffer, room temperature; then NAD+ (20 µM), 45 min
[2] = biological target: fluorescently labeled mononucleosomes assembled from octamers of recombinant human histones and DNA containing the 147 bp nucleosome positioning sequence 603 (human); experiment: spFRET microscopy; nucleosomes N(13, 91) (1 nM; Cy3/Cy5 on nucleosomal DNA) with PARP1 (20 or 50 nM), 30 min at room temperature in TB150 buffer (20 mM Tris-HCl pH 7.9, 5 mM MgCl2, 150 mM KCl, 1 mM β-ME); then NAD+ (20 µM), 45 min; no EGCG
PARP1 = experiment: spFRET microscopy; conditions: buffer, salt, pH and temperature of binding assays not given in the material (Methods 4.4-4.7 empty)

percent of detected particles in the EGCG–nucleosome–PARP1 complex at 20 nM PARP1 and 0.8 µM EGCG [1] [%]	percent of nucleosomes in the complex at 20 nM PARP1 [2] [%]	Substance	binding signal (% nucleosomes bound) (PARP1; 20 nM PARP1, no EGCG)	binding signal (% nucleosomes bound) (PARP1; 20 nM PARP1 added to nucleosomes preformed with 0.8 uM EGCG)
67	65	human poly(ADP-ribose) polymerase 1 fused with hexahistidine tag at the N-terminus (from UniProt P09874 1-1014) (enzyme)		
		N(13, 91) nucleosome	65	67
